In a protein production outcome set (Wang et al. 2014) one finds protein production data, which are given here for 7 sequences.

The nature of the series: label from the status in PepcDB records.
In the case of “MTFRDLLSVSFEGPRPDSSAGGSSAGGGGGSAGGAAPSEGPAVGGVPGGAGGGGGVVGAGSGEDNRSSAGEPGSAGAGGDVNGTAAVGGLVVSAQGVGVGVFLAAFILMAVAGNLLVILSVACNRHLQTVTNYFIVNLAVADLLLSATVLPFSATMEVLGFWAFGRAFCDVWAAVDVLCCTASILSLCTISVDRYVGVRHSLKYPAIMTERKAAAILALLWVVALVVSVGPLLGWKEPVPPDERFCGITEEAGYAVFSSVCSFYLPMAVIVVMYCRVYVVARSTTRSLEAGVKRERGKASEVVLRIHCRGAATGADGAHGMRSAKGHTFRSSLSVRLLKFSREKKAAKTLAIVVGVFVLCWFPFFFVLPLGSLFPQLKPSEGVFKVIFWLGYFNSCVNPLIYPCSSREFKRAFLRLLRCQCRRRRRRRPLWRVYGHHWRASTSGLRQDCAPSSGDAPPGAPLALTALPDPDPEPPGTPEMQAPVASRRKPPSAFREWRLLGPFRRPTTQLRAKVSSLSHKIRAGGAQRAEAACAQRSEVEAVSLGVPHEVAEGATCQAYELADYSNLRETDI”, the protein production entry is “failed”.
As for “MTFSAFFQTIDDYSFRPMIPSFIRLLRFTGLFIAIFAPALYIAMISFHYEVIPLKLLLTIGESRAKIPFPPILEALLMELVLEMLREAAVRLPGPVGQTIGVVGGIVIGQAAVQAGIVSNVMVIVVSITAVASFIIPNLEMSAGIRLLRFPMMIIASLFGVIGIMVGMAIIIIHILSMESLGVPYGSPFSPLFASDLKDILIRLPWKIMKKRPLSLNLKQENRQSDIEGTEEDK”, the protein production result is recorded as “failed”.
On to “MTGADHAHTRRRPLTGPLVKSLVFVVVTALATTVLGLSVAGTSVDSGTGTSTYKALFTDVTGLVDGDSVRISGVTVGEVTDVRVVDRRTAQVTFTVRDDRTLPRSTTAAVKYLNMVGQRYVSLGRGSGDLAGTLPEGGTVPLDRTTPALDLTLLFNGFKPLFEGLSPKDVNDLAGSIVQVLQGEGATVDSLIRHVGSLGTTVAAKDKVIGEVVENLTTVLDTLNDREDGFDDLVVTLQKLVTGFNQDRKPLGEAVAAMGDLTTVTAGLLEDGRAPLKKDVQELGRLSAGLGEHTPQIEDFLEKSPAKMTALARLSSYGSWFNLYLCEARVSGVSTSDGSKPPTGIAITESRCRGLEHHHHHH”, for which the protein production entry is given as “failed”.
To “MTGAVETESMKTVRIREKIKKFLGDRPRNTAEILEHINSTMRHGTTSQQLGNVLSKDKDIVKVGYIKRSGILSGGYDICEWATRNWVAEHCPEWTEGQPIILNEEGDFTLGPLPE” belongs “not failed”; to “MTGEWKECKLREIASEIKSGGTPSTKHQEYYGGIIPWLNTKEIHFNRIRDTDIKITEGGLNNSSAKWVKENSIIVAMYGATAGKIAINKIPLTTNQACCNITPDSEKADYNFVYYNLCHRYDELVNLSCGAAQQNLNVGLITNLDIILPPITEQCAIASVLSSLDDKIDLLHRQNKTLEAMAETLFRQWFVEEADEDWEEGFLPDEFDFTMGQSPPGTSYNQEGVGKPMFQGNADFGFRFPEERVYTTEPTRLAYPHDTLISVRAPVGAQNMAKVECCIGRGVSAFRYKANNDFYTYTYFKLRSLMDEIKKFNDEGTVFGSISKTDFLQMGIAIPPEDIIEKFEIHAKPLNDKVIENCIQIKLLEVMRDTLLPKLMSGEVRVEG”, “failed”.
As for “MTGFDADDAAALIQSYVDDHGLLSFLGVSVEDASDGEMRLRIPYHEKLTNHGPGEGDVHGGIAATLIDTAGGLAVRSALPKPVAANVATIDLNVSYLRPARGDLIADASVVRVGSTVGVAEISVVTPADTADAEPTEVAVGRGSFRVFRDDLEHHHHHH”, the protein production result was “failed”.
As to “MTGHRPACPPIPADVYTRLERRIGRCHLNQRLGIEHDFEARIFGQGRTFFHIENWNRLHTLLRRLLKLSLLYRPGQRAARRIEIRRNEFTLPHLPEAFEGYTLLHISDLHLDMAGDLPDALIRAIGQAGHYDACVLTGDFRARTFGPYRGAIDGLAQVRTHIDKPVFAILGNHDTIRMTPEIEDLGIGVLLNEAREIRQDGASIFLAGVDDPHYYRADNIEKAADPIPQGAVSILLSHSPELYRHAAYADFDIMLCGHTHGGQICLPGGIALTLNARCPRAFGRGYWRYHRMQGYTSAGSGVSILDIRLNCPPEITLHRLSRHRLSKGGCECGGGKGLEHHHHHH”, the protein production result is on record as “not failed”.
